According to patent US20230226096A1 (Orna Therapeutics, Inc., priority 2020, published 2023):

B1: Linda virus (nucleic acid)
DNA: GTATAGCAGCAGTAGCTCAAGGCTGCTATACGATTGGACATACCAAATTCCAATTGGTGTTAGGGACCACCTAGGTGAAGGCCGACGACAGGTAGCCATTCCTGTTAGTAGGACGAACCGTTATGGTGGACTGGTTGCTCAGGTGAGCAGGCTGCAATGCGTAAGTGGTGAGTACACCACAGCCGTCAAAGGTGCCACTGGTAAGGATCACCCACTGGCGATGCCTTGTGGACGGGGGCGTGCCCAACGCAATGTTAGCGGTGGCGGGGGCTGCCATCGTGAAAGCTAGGTCTTGATGGACCTTGTTGCCTGTACAGTCTGATAGGATGCCGGCGGATGCCCTGTGACAGCCAGTATAAAGAATATCCGTTGTGATTGCAC
B2: Mumps virus (nucleic acid, listed as Mumps orthorubulavirus)
DNA: ACCAAGGGGAAAATGAAGATGGGATGTTGGTAGAACAAATAGTGTAAGAAACAGTAAGCCCGGAAGTGGTGTTTTGCGATTTCGAGGCCGGGCTCGATCCTCACCTTTCATTGTCGATAGGGGACATTTTGACACTACCTGGAAA
B3: Hepacivirus P (nucleic acid, listed as Hepacivirus sp.)
DNA: ACATGGGGGGGGGCTGACAGTGAGTACACTGTGCCAAGCAGGTGCTACGCTATGCCTAGGTGCTGCTGTAGGCCAAGGACATGTCCCAGTCATCCCAGGTGAGGGGGGGGGTTCCCCTCACCGCTGCCACTGCCTGATAGGGTCCTGCCGGAGGGTCTCGGTGTCCGGCTGTAC
B4: Harrier picornavirus 1 (nucleic acid)
DNA: GATGTGTGACGGTGTAATTACTTTCCGGATCCCACTTTCCTATTATAACTCTTTCATCCCAAGGTTAGGGAAAGAACCTGGCTCGGTACCACCAGACCCTCCGCCACGCTAGTGGACTCTCCGGAGATAACGGTACCCCCTTTGTAGTCACCTGTGCTGGTGAAGAACCACCTAGTATTGCTTGGGTGCGTGCCGCCTAGCTTCCATTTCTTCTGGAGCACTGTGCAATGAGGTTTCCCCACTTGGTAACAAGTGCCTCAGGTCCCGCAAGGATACTGTGGGGTGGTGTGACCGCAGGGAGCTGTCTCCACGGCTCCTCTAATGTTACGCCGCTATCCACAGGCCAGTGCGTGTCATCGATCCCGGATGACAGAGCTAGTATTGCGAACCCCCAAGTAAGAAAAGTGGCTAGTAACCTGATAGCTGGTGAAGAGGGTGGGTCAGTTGAGTAGATGCCCTAGAGGTACCCGAAAGGATCTGACTAGGGACCCGTGACTATACATTAGGTAAACCGGGTATAAAAACCATGAAAAACTGACCACTTTTCTTTTAACCTCTTCTTTCTTTTTATGTGTGTTAAGTGTTTTGAGTTTGGACTGTACCTTGCCCGCCTTTCTTGGATTTTCTCTATCGCTCTTCTTACACCTACTGTTATCAAGGCACTCTTTAGAGATA
B5: Miniopterus schreibersii picornavirus 1 (nucleic acid)
DNA: GTTGTCGACCCGTTGCTTGGTTTAAGCATGAGGTGGATTCCCCCGATTATGTCTACCCGTTACTATGGCGGGCGGTCGTTTCAGGGTGTTTCTACTGAGGACTGCACCAAGTCTTTATCTTTTATTCTCAGATCTCCGGCTGTTTGACGCTTGTAGGACAGCAGGACTATTTTCTCTTAATCTTTTTCTACCCACTAGGGTCCTATCCTAGTGGAGGGAGGGTGCCACCCCTTCTCTCTTTAGAGAGTGCGCCTGGCGGTCTTTCCGTCTCTGGAAAAAGGAGCACATGGCATGCTACAATTGGCACAAGAAAACAAGCTTTGCGGATTCTTTCTTTGTACTAGAGGAAGCTGTAGCGACCCTGTATGGCGAGCGGACTCCCCTCTCGGCGACGAGAGCCTCTCGGGCCAAAAGCCAAGTGTTAATAGCACCCATACAGGCGGCAGTACCCCACTGCCCTTTCTCAACATACAATGACTGATGAACCACTGTTGGTTTTTCTGACACCTTTGTAGTAGGATTCCAAGGAATGTCCTGAAGGTACCCTGTTAGCTTACGCGCAGGATCTGATCAGGAGTCTCTTTACAGTGCTGTACACTGTGCAAGGGATTAAAAATTGTTTGAGGAATCCCCGAGATAGTGGTCTATCTCTTCCTATTTTGTTTTACAGACACG
B6: Jingmen picorna-like virus (nucleic acid)
DNA: TGTGTTTTTGTCAAGATAATTGTTCTGTGATTAACAGTGATTGTGGTTCGTGTAATGCGACGCAGTCAAATGCTAGTTTTGATGAAGTGTATGAGAGAGTGGAAAACTTATCTCATAAGAAGATTGAAGAGTGTGTAGATCAGGCTATTGATCGAGCTTCTAAGCTTCGTGATTACAAGCTTAATGTTCACAATGGCTCCCGACGGGAATCATCTGATCCTCTCTTTATTTCGCCCCATTCGTTGTTATCGCTTGGGGTATCTAAGTTTGTTGCGTTTGAGCAGCATCACAGTTTCGCTTCAGTTGAGTCTCTGAAGTTGCTTGCTCTGTCT
B7: Kunsagivirus 1 (nucleic acid, listed as Kunsagivirus sp.)
DNA: TTTCAAATCGGACTCCGGTAGTTATACCGGAGCCCGGTTTGGACGCTTGGGCCGCGTTAACAGCCCCCCACCCCTTTCCCACTGACTGATTTCTCGGATTGGACTCATTTGCATTGCTAACTCTGATTCTGGATTTCCCCGTTTATGTCGTCGCGGTCGGAAGTGCACGTACTTCGACGTTGATCTGATGGCGTTTGTTTCCAGGGGGGAGGTGGCGGCAGAAACGCCCCCGCCGTAAACTTCGGCGGGCCACGCCTGTCAAGCCACTCCCTGGGGCCGAGCGCCTGAGGTGATACAGAGAGATAAGCACACTGGGCGCTGACAACGCCCGGGACCTCAGTGAGAAGAGCAGTAGGGCCGTGTTTATGGGACTCCATTGGATATCCCCCGCTTGTCGGAACTCACGGCTACTCCGGGTTGGGAAGCCCGCGACTGGTACTGTACTGGGTGATAGCCTGGTGCCTTCCCTCTCACTGTTGTATGAAGGCTGAAAACCCCCT
B8: Kagoshima-2-24-KoV (nucleic acid, listed as Kobuvirus sp.)
DNA: TATAGTTTGCCTGTTTCTCGCACCGTTACCGCTCGTTCGGGAATGTGAAACTGGCACCCCTCCTCTCCCCTACCACCCTTTCTCCTTCGCCCCCATTCATAATTTACAACGCCGCACACAGCGGCGGCCGCCAAGGGCTAGCCTGGCGGTTATAAAAGGAACCTGGGTCTTTCCCTCTTCAAGCCAAAAGGTAGGTTCCCTGTGTCCCTGAATGCTCGGTGAGGAATGCTGCACCGTAACGCTTTGTGAAGTGTTTGCAAGTTCTGGCCCGGCAAGCCTACAGAGTGCTGTGATCCGCTGCGGACGCCATCCTGGTAACAGGACCCCCAGTGTGCGCAACAGTATGTTCAGACTTCGGTTTGTTCACTTGCTTTCATGGACCATTGCGCGAAAGTGCGTGCGCCATATCCCTGTACTTCAGGTGTGCTTCTCTGGACCCTAGGAATGCTGCGAAGGTACCCCGTTTCGGCGGGATCTGATCGCAGGCTAATTGTCTATGGGTTCAGTTTCCTTTTTCTTTACTCCACAATTGACTGCTTAACTGACTCTGGATCTTGTGCTTCCACTGCTCTTTCTGCTCTCAAAACGGCTTCACTTACCAACTCTCACCTTTCGACCAACACCATTTACACACTAACTTTTTTCGACTCTTCTGACTCCTGGCTTGGTGAAGAC
B9: Mouse Mosavirus (nucleic acid, listed as Mosavirus sp.)
DNA: GAAGTTGATCATGAACTTGGTTATTGGTGGAACGCACATGAACTCCCAACAATGATCTTGAAGACACAGCGTGGTAACAATTACCATGCCCTTGTGGCTGCCCAAGACATTGATGGCTATTGGGTGATTTATGATGAC
B10: Hubei sobemo-like virus 3 (nucleic acid)
DNA: GAGATGTTTGCGTGGGCCGTTGCGCTGCGGGCGGCCCACCTCCCTACGGGGACCGTGAGACACCGCTGGGGAAGGCCCCCACCCCCGGCCAAGGGGATCCTGCCGAGAGGCAGGAGAAAGAGGCCCAGCCCTCTGGGGCGCCTTTAGGGGTGCCTGGGAGGGAAGTACCCGAGCCGGGCGGCCGGTCGGGTGCGGCTGTGCAGTTCGAGGCTAACCGTAAGGAAGGCCTGAGCTGCCTCGGCTTGTCGGAAAGGAAGACGAAGGCACTTATCAAGGCTTTCAGGAAGCAGGAGCGCAATTACAGCGCGCGCCGTGCGGCCTGGATTAACCGCATTTGGCCG
B11: Megirivirus C (nucleic acid)
DNA: TTCCCGACCGGTCTGGCAAACCGGACGGTTATCCTGGTTAGATGTCTGATGGTTGCTGGAACGTGGTGGCTACTGCTGCCACCTTCTGGCTTCCTTTAATGGGCATCTAGCTGGGTTCTTTGCCACAATCCATCTTACTCTCTTACCCATTTTCTATTACCCAGACTTGTTGTTAACTGGTAAAGTTGACCTACTGGCTTCGTTTTGAGACTATTCTGGTGTTGGTGGACACTCTTTCCACAAGTAGATTGTATGGAGTTCATGCTCGTTTTGAACCGGGAATGGCACAACCCGTAGTAGGATCTTGCCTCTGCCATACTAATCTGCGCCTGTTGCTTTTAGACTATGGGCTGCTAAGGATGACATTGGAACCCCTTTTTGGATATTCCATGTCAAGTCAACTGTTTCATCTGGTGTACGCTGGAAATCCTTGTTCCGAGGTCTTGTCTGGAGGTGGTGCTGAAATATTGCAAGCCACAGGCAGTTCCTTGGACTTGGTGCCGCTATCAGATGCTACACCCTCTATGGGCAAATGTTGAACCTTAGTGGACGCGTGAGATGGGAATCCACGCCGGCCATAGACTGGCTGATAAGCTCGCGGCTGATCGAGTTGCAACAGTAATCAGTTGATTTGCCACT
B12: Hubei picorna-like virus 2 (nucleic acid)
DNA: AGCAACTTCTTTCTGAAAACTAGCTAGAGTTCGACGATCTCTCTGGCTAATGACAAATAACCAATCAAAAAGTCAAATGTTCATGTATATATATATTTAGTAGTGACCTTTATTTAGAAAAACTTTAGATGATTTATCGTCAAGTTGCCCTTTGTGAAGCGATCAGCTTTTTATATCGTTTCATTTTTGTATACGTCTTAATTGACGTTGTAAGTACGTTTTGCATACCTCACATTGAGGATAGTATCGTTTCCTGACTAAGAAGTTAAACTAGTCTACCAATAGCAACCATATAGGATATAGCTTTGTTTTTAACAAGGTTTAATCTGATCTTATGCTCTTGCTTACGGTGTTTTATGTATAGAAAAGTTTTTATAAAAACTACATAATTGTCAAAAGAAAAAGCGTTACGTACTGACGCATTTATGTTCACAGTGTGACACAAACCTTCTATATTTTGATTGTAAAATAGGCTTTGCCTGACCATTTATCAAATACAAACTGTTTCAAACGCCTCTCCGAGCCATATTGGCCGACGCGAATCGACATAACAGGGTGAGTTTACAGCTGCAGTTGCAGCCGAGGATCCACTTATTTGAGAGAGAATTACTCTTAACGAAATTTTGAAGTCACTTCTACACAGTTAAGTCTGAGTAGGCGTTATCCAAACGTAAA

These molecules were tested on HEK293 cells. Settings: luminescence from secreted Gluc in supernatant 24 hours after transfection of HEK293 cells; circular RNA encoding Gluc with the named IRES (UTR truncated to 675 nt).
Assay type: cell-based, human
B1 was tested, and the Expression was 7.37E+05.
Molecule B2 has an Expression of 1.47E+05.
Molecule B3 has an Expression of 6.04E+05.
In the case of B4, the Expression is reported as 1.47E+05.
With B5 the Expression was 6.05E+06.
B6 showed an Expression of 9.32E+04.
Work on B7 yielded an Expression of 4.15E+05.
B8 gave an Expression of 9.30E+07.
B9 showed an Expression of 9.00E+04.
Work on B10 yielded an Expression of 1.17E+05.
B11 was tested, and the Expression was 1.24E+05.
Work on B12 yielded an Expression of 1.95E+05.
